From paper doi:10.1101/2025.05.28.656462 (bioRxiv, 2025)

Biological target: the molecule itself
Assay: SEC

B1: full-length Pseudomonas aeruginosa bacteriophytochrome PaBphP, wild type (FL-PaBphP-D) (natural protein)
chain: MTSITPVTLANCEDEPIHVPGAIQPHGALVTLRADGMVLAASENIQALLGFVASPGSYLTQEQVGPEVLRMLEEGLTGNGPWSNSVETRIGEHLFDVIGHSYKEVFYLEFEIRTADTLSITSFTLNAQRIIAQVQLHNDTASLLSNVTDELRRMTGYDRVMAYRFRHDDSGEVVAESRREDLESYLGQRYPASDIPAQARRLYIQNPIRLIADVAYTPMRVFPALNPETNESFDLSYSVLRSVSPIHCEYLTNMGVRASMSISIVVGGKLWGLFSCHHMSPKLIPYPVRMSFQIFSQVCSAIVERLEQGRIAELLRVSTERRLALARRARDADDLFGALAHPDDGIAALIPCDGALVMLGGRTLSIRGDFERQAGNVLQRLQRDPERDIYHTDNWPQPSEDSPDGGDCCGVLAIRFHRQESGWIFWFRHEEVHRIRWGGKPEKLLTIGPSGPRLTPRGSFEAWEEVVRGHSTPWSETDLAIAEKLRLDLMELCLNHAAEVDRMRQRLIAVLGHDLRNPLQSISMAAALLSSSDTRTTELRQHISASSSRMERLVSQILDMSRLQSGIGLTVNPVDTDVSQLVRQIVCETDVAYPGLVIEIAIDPQVRAVVDPDRYAQVAANLLSNARHHGLPGRPVLVTLTRQGDEVCLSVLNETSGLSEAQLANLFEPFKRESADNQRNRNGLGIGLYISQAIAQAHQGRIDVDCRDDVITFCLRLPVRQAETGSSS
stoichiometry N: 2
